The values below come from patent US20260209363A1 (Chugai, published 2026).

In assay [1] the target is T1, Mouse MOG (R&D system) (mouse, UniProt Q61885 29-156, limits assumed).
T1 construct: also called mouse soluble MOG; soluble MOG
T1 sequence (looked up): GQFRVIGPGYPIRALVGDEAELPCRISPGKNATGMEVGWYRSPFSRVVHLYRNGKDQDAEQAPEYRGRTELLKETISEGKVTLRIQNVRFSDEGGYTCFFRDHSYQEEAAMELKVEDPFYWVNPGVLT
The assay is described as follows: plasma MOG clearance in mice after IC17 0.2 mg/kg IV and MOG 0.021 mg/kg IV.

Assay [2] has as its target T2, IL6R on IL6R-CHO cells (CHO cells forced to express IL6R) (UniProt P08887 20-468, limits assumed).
T2 construct: whole, on cells; also called membrane-type IL6R; IL6R on the cell membrane
T2 sequence (looked up): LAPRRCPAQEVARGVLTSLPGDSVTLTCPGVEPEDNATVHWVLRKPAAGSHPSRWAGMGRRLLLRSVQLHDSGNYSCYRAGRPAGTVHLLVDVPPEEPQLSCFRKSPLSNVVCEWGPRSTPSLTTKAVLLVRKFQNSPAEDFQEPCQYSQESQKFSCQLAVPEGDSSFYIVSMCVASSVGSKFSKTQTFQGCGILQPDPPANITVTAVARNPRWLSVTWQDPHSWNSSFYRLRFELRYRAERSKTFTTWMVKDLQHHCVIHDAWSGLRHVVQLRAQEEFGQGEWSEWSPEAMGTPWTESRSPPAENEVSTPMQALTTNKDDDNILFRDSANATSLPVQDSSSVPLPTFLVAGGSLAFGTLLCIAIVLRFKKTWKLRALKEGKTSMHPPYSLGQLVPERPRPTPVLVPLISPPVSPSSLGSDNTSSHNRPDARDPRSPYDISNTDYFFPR
The assay is described as follows: flow cytometry on IL6R-CHO cells, 4 degrees C 60 min, detection with Alexa Fluor 647 anti-dGK antibody; (a) MSA-free medium, (b) medium with 50 mg/mL MSA, (c) mouse plasma [a), (b), (c]. Here is the method: Binding ability of albumin switch molecules against the membrane-type antigens were verified. Specifically, the antibodies (10 micro g/mL) indicated below were incubated with IL6R-CHO cells (Chiome Bioscience, 2×10⁵ cells/well) in mouse serum albumin (MSA)-free CHO-S-SFM II medium (Thermo Fisher Scientific), 50 mg/mL Recombinant MSA (Albumin Bioscience)-containing medium, or mouse plasma (6-week-old male C57BL/6J mouse) at 4 degrees C. for 60 minutes. Antibodies used for the reaction were IC17, H54//IC17, and ABD094(H/L)-H54//IC17. After the reaction, the cells were washed three times with PBS(−). Addition of Alexa Fluor 647-labeled anti-dGK antibody (10 micro g/mL) was followed by incubation at 4 degrees C. for 30 minutes. Lastly, the cells were suspended in PBS(−) and analyzed by FACSCantoII (BD).
In general terms: A flow cytometer gives signals particle by particle.

The target in assay [3] is T3, human soluble IL-6R (human, UniProt P08887 20-357, limits assumed).
T3 construct: Soluble form; also called sIL6R; Human IL-6R
T3 sequence (looked up): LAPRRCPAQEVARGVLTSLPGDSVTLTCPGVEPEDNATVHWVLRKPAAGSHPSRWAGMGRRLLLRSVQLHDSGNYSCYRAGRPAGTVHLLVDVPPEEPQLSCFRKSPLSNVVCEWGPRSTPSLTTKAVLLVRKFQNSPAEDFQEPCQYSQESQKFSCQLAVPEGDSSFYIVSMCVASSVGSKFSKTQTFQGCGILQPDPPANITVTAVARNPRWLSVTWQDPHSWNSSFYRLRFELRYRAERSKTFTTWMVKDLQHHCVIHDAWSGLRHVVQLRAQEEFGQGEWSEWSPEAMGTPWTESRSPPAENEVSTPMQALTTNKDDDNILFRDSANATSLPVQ
The assay is described as follows: Gyrolab xP complex assay in C57BL/6J mouse plasma: antibody 0.15 µg/mL and human soluble IL-6R 0.15 µg/mL (final), capture by biotinylated anti-human IL-6R antibody, detection with AF647-anti-delta GK; signal as % of H54//IC17. As for the experimental part: First, to bind the albumin-binding portion to albumin in the plasma, the anti-human IL-6R antibodies (albumin switch molecules) indicated in Example 2 were diluted to 0.6 micro g/mL using C57BL/6J mouse plasma, and then incubated at room temperature for one hour. Next, for binding of the anti-human IL-6R antibody to the target antigen, one equivalent of human soluble IL-6R diluted to 0.6 micro g/mL in mouse plasma was added to the antibody solutions, and then the solutions were incubated at room temperature for one hour.
To detect the antigen-antibody complexes, first, the anti-delta GK antibody (AF647-anti-delta GK) was labeled using an Alexa flour 647 labeling kit (A20186, Thermo Fisher Scientific) according to the attached protocols. […]
Measurement of antigen-antibody complexes was performed using Gyrolab xP. […] The amount of the captured complex was detected by the fluorescence signal of AF647 (Detect PMT 25%). The fluorescence signal of AF647 was analyzed by Gyro Evaluator (version 3.6.2.30, Gyros Protein Technologies).

Assay [4] concerns the target T4, MOG on mouse oligodendrocytes (mouse, UniProt Q61885 29-246).
T4 construct: whole, on cells; also called MOG on the cell membrane; MOG expressed by cells in the brain
T4 sequence (looked up): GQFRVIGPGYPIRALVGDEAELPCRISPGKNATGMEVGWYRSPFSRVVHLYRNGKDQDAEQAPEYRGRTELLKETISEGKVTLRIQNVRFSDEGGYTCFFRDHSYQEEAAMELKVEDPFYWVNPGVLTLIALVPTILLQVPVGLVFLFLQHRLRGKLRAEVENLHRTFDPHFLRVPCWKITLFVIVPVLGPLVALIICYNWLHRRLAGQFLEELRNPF
The assay is described as follows: flow cytometry on mouse brain cell suspension, O4-positive/CD45-negative oligodendrocyte fraction, 4 degrees C 60 min, detection with Alexa Fluor 647 anti-delta GK antibody; (a) MSA-free DPBS, (b) DPBS with 50 mg/mL MSA, (c) mouse plasma [a), (b), (c]. As for the experimental part: The binding ability of albumin switch molecules against the membrane-type antigens were examined. Specifically, the antibodies (10 micro g/mL) indicated below were incubated with mouse brain cell suspension (2×10⁵ cells/well), in mouse serum albumin (MSA)-free DPBS (Thermo Fisher Scientific), DPBS containing Recombinant MSA (Albumin Bioscience) at 50 mg/mL, or mouse plasma (6 weeks old, male C57BL/6J mouse) at 4 degrees C. for 60 minutes. The mouse brain cell suspension was prepared from mouse brain using Adult Brain Dissociation Kit (Miltenyi Biotec) and gentleMACS (Miltenyi Biotec). Antibodies used for the reaction were IC17, MOG//IC17, and ABD094(H/L)-MOG//IC17. After the reaction, the cells were washed once with DPBS. […] Lastly, the cells were suspended in DPBS and analyzed by FACSCantoII (BD). The fluorescence intensities of Alexa Fluor 647 in the MOG-expressing oligodendrocyte O4-positive/CD45-negative fractions were measured (Schroeter, C. B. et al., One Brain-All Cells: A Comprehensive Protocol to Isolate All Principal CNS-Resident Cell Types from Brain and Spinal Cord of Adult Healthy and EAE Mice. Cells 2021, 10(3), 651).

B1: IC17 (antibody, human IgG1, kappa, V domains shown)
VH: QVQLQQSGPQLVRPGASVKISCKASGYSFTSYWMHWVNQRPGQGLEWIGMIDPSYSETRLNQKFKDKATLTVDKSSSTAYMQLSSPTSEDSAVYYCALYGNYFDYWGQGTTLTVSS
VL: DIQMTQSSSSFSVSLGDRVTITCKASEDIYNRLAWYQQKPGNAPRLLISGATSLETGVPSRFSGSGSGKDYTLSITSLQTEDVATYYCQQYWSTPYTFGGGTKLEVKR
notes: also called Anti-KLH antibody
Consider B1, for which the binding result is reported as “no binding” in assay [1], “no binding (tested: 10 µg/mL)” in assay [2], “no binding (tested: 0.15 µg/mL)” in assay [3] and “no binding (tested: 10 µg/mL)” in assay [4].
